Results from patent US20240150797A1, “BIOCATALYTICAL PRODUCTION OF DIHYDROCHALCONES” (Symrise AG, priority 2021, published 2024).

B1: CHI13: Chalcone isomerase from Lactobacillus sp. 54-2, access no. WP_125715151.1 (protein)
chain: SFEFRPMRSVIYVDVIKEKYRPKLLHWLYGHHIQDSISKFGPYVTKYAFYNAFPVPPEGERFGTRRMQMTEHYWLINEMTPEMKNNAITEYMPKDVLRWQGNIPDTDAAAAGNVDGDTGRSAGGANGCQPFVFAHVPINWEEDYKGDGRMVADGPNYRWQFVIKYPENLTEAAGEAWFHDEVVPYFKGRPEVHRFMSSRIMQDVVGCEFERLVEMWFDSEDEWYTAAVAGTTALKKPSWAQQNQFPFLTPQFNIVGMFLPDIPTSDNLAQYRGYITMR
modifications: Lactobacillus sp. 54-2
B2: CHI15: Chalcone isomerase from Clostridioides difficile, access no. WP_095917646.1 (protein)
chain: ADFEFKIMRSLIYVGLAKEEYRPKLMDWLYRHHIPDSISTFGPYCTKYAFYQAYPTPNEGERFGARKMQLTEHYWLVDEHMPEMANRIMTEYMPMDVLRWQGCIPDVENKRVHENVESGDAGRAVGGDNGCPPFIFAFVPINWEEDFRGKGRTVQDGPNYRWQFMIKYPDGISKEEGEKWFYDEVVPYFTNCCYVNRFVSSKIMINYGATAFDRVSELWFEGEEEWYKAVVEETKSFIKKPEWAQEEEFPYLKPQFNIASVFLGDIATMDAYSQYRGYIPMR
modifications: Clostridioides difficile
B3: CHIera Mut2: Chalcone isomerase variant 2 from Eubacterium ramulus, genetically engineered (protein, listed as Eubacterium ramulus)
chain: MADFKFEPMRSLIYVDCVSEDYRPKLQRWIYKVHIPDSISQFEPYVTKYAFYPSFPIPPQGDRFGYARMQLTEHHWLVSPLDPRLEIKAIAETFPMDVLVWQGQIPAAAHTDAQIDSDGDAGRAAGKSNNAEGNPFIFAFLPMWWEKDLKGKGRTIEDGANYRFNMTIGFPEGVDKAEGEKWLFEKVVPILQAAPECTRVLASAVKKDINGCVMDWVLEIWFENQSGWYKVMVDDMKALEKPSWAQQDAFPFLKPYHNVCSAAVADYTPSNNLANYRGYITMR
B4: CHIera Mut10: Chalcone isomerase variant 10 from Eubacterium ramulus, genetically engineered (protein, listed as Eubacterium ramulus)
chain: MADFKFEPMRSLIYVDCVSEDYRPKLQRWIYKVHIPDSISQFEPYVTKYAFYPSFPIPPQGDRFGYARMQLTEHHWLVSILDPRLEIKAIAETFPMDVLVWQGQIPAAAHTDAQIDSDGDAGDAARKSNNAEGNPFIFAFLPMWWEKDLKGKGRTIEDGANYRFNMTIGFPEGVDKAEGEKWLFEKVVPILQAAPECTRVLASAVKKDINGCVMDWVLEIWFENQSGWYKVMVDDMKALEKPSWAQQDAFPFLKPYHNVCSAAVADYTPSNNLANYRGYITMR
B5: CHIera Mut12: Chalcone isomerase variant 12 from Eubacterium ramulus, genetically engineered (protein, listed as Eubacterium ramulus)
chain: MADFKFEPMRSLIYVDCVSEDYRPKLQRWIYKVHIPDSISKFEPYVTKYAFYPSFPIPPQGDRFGYARMQLTEHHWLVSPLDPRLEINAIAETFPMDVLVWQGQIPAAAHTDAQIDSDGDAARAARKSNNAEGNPFIFAFLPMWWEKDLKGKGRTIEDGANYRFNMTIGFPEGVDKAEGEKWLFEKVVPILQAAPECTRVLASAVKKDINGCVMDWVLEIWFENQSGWYKVMVDDMKALEKPSWAQQDAFPFLKPYHNVCSAAVADYTPSNNLANYRGYITMR
B6: CHIera Mut7: Chalcone isomerase variant 7 from Eubacterium ramulus, genetically engineered (protein, listed as Eubacterium ramulus)
chain: MADFKFEPMRSLIYVDCVSEDYRPKLQRWIYKVHIPDSISTFEPYVTKYAFYPSFPIPPQGDRFGYARMQLTEHHWLVSELDPRLEIRAIAETFPMDVLVWQGQIPAAAHTDAQIDSDGDAGDAARKSNNAEGNPFIFAFLPMWWEKDLKGKGRTIEDGANYRFNMTIGFPEGVDKAEGEKWLFEKVVPILQAAPECTRVLASAVKKDINGCVMDWVLEIWFENQSGWYKVMVDDMKALEKPSWAQQDAFPFLKPYHNVCSAAVADYTPSNNLANYRGYITMR
B7: CHIera Mut9: Chalcone isomerase variant 9 from Eubacterium ramulus, genetically engineered (protein, listed as Eubacterium ramulus)
chain: MADFKFEPMRSLIYVDCVSEDYRPKLQRWIYKVHIPDSISQFEPYVTKYAFYPSFPIPPQGDRFGYARMQLTEHHWLVSMLDPRLEIKAIAETFPMDVLVWQGQIPAAAHTDAQIDSDGDAGNAARKSNNAEGNPFIFAFLPMWWEKDLKGKGRTIEDGANYRFNMTIGFPEGVDKAEGEKWLFEKVVPILQAAPECTRVLASAVKKDINGCVMDWVLEIWFENQSGWYKVMVDDMKALEKPSWAQQDAFPFLKPYHNVCSAAVADYTPSNNLANYRGYITMR
B8: CHIera Mut14: Chalcone isomerase variant 14 from Eubacterium ramulus, genetically engineered (protein, listed as Eubacterium ramulus)
chain: MADFKFEPMRSLIYVDCVSEDYRPKLQRWIYKVHIPDSISKFEPYVTKYAFYPSFPIPPQGDRFGYARMQLTEHHWLVSELDPRLEINAIAETFPMDVLVWQGQIPAAAHTDAQIDSDGDAHRAARKSNNAEGNPFIFAFLPMWWEKDLKGKGRTIEDGANYRFNMTIGFPEGVDKAEGEKWLFEKVVPILQAAPECTRVLASAVKKDINGCVMDWVLEIWFENQSGWYKVMVDDMKALEKPSWAQQDAFPFLKPYHNVCSAAVADYTPSNNLANYRGYITMR
B9: CHIera Mut4: Chalcone isomerase variant 4 from Eubacterium ramulus, genetically engineered (protein, listed as Eubacterium ramulus)
chain: MADFKFEPMRSLIYVDCVSEDYRPKLQRWIYKVHIPDSISQFEPYVTKYAFYPSFPIPPQGDRFGYARMQLTEHHWLVSELDPRLEIKAIAETFPMDVLVWQGQIPAAAHTDAQIDSDGDAGRAAKKSNNAEGNPFIFAFLPMWWEKDLKGKGRTIEDGANYRFNMTIGFPEGVDKAEGEKWLFEKVVPILQAAPECTRVLASAVKKDINGCVMDWVLEIWFENQSGWYKVMVDDMKALEKPSWAQQDAFPFLKPYHNVCSAAVADYTPSNNLANYRGYITMR
B10: CHIera Mut11: Chalcone isomerase variant 11 from Eubacterium ramulus, genetically engineered (protein, listed as Eubacterium ramulus)
chain: MADFKFEPMRSLIYVDCVSEDYRPKLQRWIYKVHIPDSISQFEPYVTKYAFYPSFPIPPQGDRFGYARMQLTEHHWLVSPLDPRLEIKAIAETFPMDVLVWQGQIPAAAHTDAQIDSDGDAGDAARKSNNAEGNPFIFAFLPMWWEKDLKGKGRTIEDGANYRFNMTIGFPEGVDKAEGEKWLFEKVVPILQAAPECTRVLASAVKKDINGCVMDWVLEIWFENQSGWYKVMVDDMKALEKPSWAQQDAFPFLKPYHNVCSAAVADYTPSNNLANYRGYITMR
B11: CHI14: Chalcone isomerase from Butyrivibrio sp. AC2005, access no. WP_026657636.1 (protein)
chain: AYEFNLMRSLIYVGLAKEEYRAKLEHWLYNHHVPESISKFSPYVTKYAFYQAYPTPPEGDRFGARKMQLTEHYWLVNEHLPEMANNIFQEFMPMDVLRWQGCIPDVDSATVHDNAESGDAGRAVGGGDFPPFIFAFVPINWEEDFKGKERTPVNGPNFRWQFLIQYPEGCSKDEGERWFHEEVVPFLTGSVRVNRLVSSKVKVNYGAPSAQFDRLVEVWFDGPEEWYDLCVNLAKDKLKKPEWAQQDTFPFLKPQHNIASMFLGDRCTSDNLTQYRGFITMR
modifications: Butyrivibrio sp. AC2005

What was measured:
Type in all cases: biochemical
Conditions in all cases: purified CHI in 50 mM PBS, 100 μM substrate, 25° C.
[1] = Specific activity of purified CHI, absorbance decrease at 384 nm, naringenin chalcone
Experimental: (§1) E. coli BL21 (DE3) cells containing one of the pET28b plasmids from Table 2 or Table 3 were used to inoculate 1 L LB medium at OD of 0.1. Cells were incubated at 37° C., 250 rpm until the OD reached 0.4-0.6 and induced by supplementing with 0.1 mM IPTG. After protein expression at 28° C., 250 rpm for 16 h, the cells were harvested by centrifugation at 4,000×g for 15 min. The harvested cells were lysed with 0.5 mg/mL lysozyme (Sigma-Aldrich), 0.4 U/mL Benzonase (Sigma-Aldrich) and BugBuster (Merck) at room temperature for 0.5 h to obtain a crude cell extract. The crude extract was centrifuged at 10,000×g for 30 min to remove the pellet. Recombinant proteins were purified by Ni-affinity chromatography (GE Healthcare). The supernatant of the crude extract was loaded on the column with 20 mM imidazole. The column was washed by 5 column volumes of 30 mM imidazole with 20 mM PBS (pH 7.4) and 500 mM NaCl. The target proteins were eluted by 150 mM imidazole with 20 mM PBS (pH 7.4) and 500 mM NaCl. Buffer exchange with 50 mM PBS (pH 7.5) was achieved by ultrafiltration with Amicon Ultra-15 (Merck). The activity of the respective purified enzyme was determined by measuring the absorbance decrease at 384 nm in the reaction mix (CHI in 50 mM PBS with 100 μM of either naringenin chalcone, hesperetin chalcone, eriodictyol chalcone, homoeriodictyol chalcone or 4-O-methyl butein at 25° C.).

[2] = Specific activity of purified CHI, absorbance decrease at 384 nm, eriodictyol chalcone
Experimental: as §1

[3] = Specific activity of purified CHI, absorbance decrease at 384 nm, homoeriodictyol chalcone
Experimental: as §1

[4] = Specific activity of purified CHI, absorbance decrease at 384 nm, hesperetin chalcone
Experimental: as §1

Row | Molecule | Specific activity, Naringenin chalcone [1] | Specific activity, Eriodictyol chalcone [2] | Specific activity, Homoeriodctiol chalcone [3] | Specific activity, Hesperetin chalcone [4]
1 | B1 | 32.7 | 66.2 | 21.7 | 2.0
2 | B2 | 14.5 | 11.7 | 2.2 | 1.3
3 | B3 | 4.4 | 8.3 | 3.5 | 11.5
4 | B4 | 26.4 | 60.0 | 17.9 | 96.4
5 | B5 | 11.0 | 19.9 | 9.8 | 24.9
6 | B6 | 61.4 | 181.3 | 62.2 | 28.4
7 | B7 | 67.5 | 43.7 | 14.4 | 57.4
8 | B8 | 29.5 | 27.2 | 15.6 | 4.5
9 | B9 | 2.3 | 8.9 | 4.8 | 4.7
10 | B10 | 76.8 | 91.1 | 30.8 | 75.5
11 | B11 | 45.9 | 50.4 | 28.8 | 2.1
